For one molecule, stoichiometry N results are on record in article PMC2605612.

In the experiment the target is T1, Myc-hFis1[1-152] (human), Q9Y3D6.
T1 chain: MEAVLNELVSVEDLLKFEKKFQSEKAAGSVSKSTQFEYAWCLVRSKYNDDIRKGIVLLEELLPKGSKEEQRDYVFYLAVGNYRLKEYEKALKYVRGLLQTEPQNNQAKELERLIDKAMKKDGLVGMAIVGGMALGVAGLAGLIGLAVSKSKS
Description: cross-linking. The settings on record: remark: other sources report otherwise.

B1: Myc-hFis1[1-152], Q9Y3D6 1-152 (natural protein)
chain: T1 chain
Take B1: the stoichiometry N (usually the number of molecules, sites or subunits per partner or assembly) worked out at 2.
